The experiment concerns the target T1, β-ketoacyl-ACP-synthase I (FabB) (E. coli, UniProt P0A953 1-406).
T1 sequence: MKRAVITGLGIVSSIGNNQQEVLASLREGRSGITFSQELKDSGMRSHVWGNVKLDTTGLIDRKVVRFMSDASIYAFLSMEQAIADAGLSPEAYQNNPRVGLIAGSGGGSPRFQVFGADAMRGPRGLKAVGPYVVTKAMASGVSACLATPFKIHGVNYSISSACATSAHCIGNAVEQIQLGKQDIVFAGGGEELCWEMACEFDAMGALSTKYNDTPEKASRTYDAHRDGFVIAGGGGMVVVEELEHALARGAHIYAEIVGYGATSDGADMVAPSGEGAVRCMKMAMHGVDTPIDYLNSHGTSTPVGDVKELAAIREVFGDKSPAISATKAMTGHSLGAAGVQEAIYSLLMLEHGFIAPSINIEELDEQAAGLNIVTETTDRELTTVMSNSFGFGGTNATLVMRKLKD
Kind of experiment: NMR titration.

Numbering of substitutions follows the chain as printed. Names may count otherwise.

B1: wt C8-AcpP (octanoyl-AcpP) (natural protein, E. coli)
chain: MSTIEERVKKIIGEQLGVKQEEVTNNASFVEDLGADSLDTVELVMALEEEFDTEIPDEEAEKITTVQAAIDYINGHQA
modifications: amide-linked octanoyl (C8) pantetheine probe on the phosphopantetheine serine (S36); 15N, 2H labelled
B1 had a Kd of 37.6 µM.

B2: D38A C8-AcpP (natural protein, E. coli)
chain: B1 chain with D39A
modifications: amide-linked octanoyl (C8) pantetheine probe on the phosphopantetheine serine (S36); 15N, 2H labelled
The molecule B2 registered an equilibrium dissociation constant (Kd) of 167 µM.

These data come from publication PMC7323458 (Nature chemical biology, 2019).
